Experimental findings from paper PMC12175502, “7β-Hydroxysteroid dehydratase Hsh3 eliminates the 7-hydroxy group of the bile salt ursodeoxycholate during degradation by Sphingobium sp. strain Chol11 and other Sphingomonadaceae” (Applied and Environmental Microbiology, 2025) are described below.

One data set has as its system T1, Hsh2.
T1 construct: tag not reported cut
Briefly: continuous spectrophotometric assay at […] nm. The settings on record: 50 mM MOPS pH 7.8, 30 °C, 25% ethanol; dehydration; substrate range 50 µM to 1 mM. Type of data set: biochemical, Sphingobium sp. Chol11.

Data set [1] concerns T2, C[C@]12C=CC(=O)C=C1C[C@H](O)[C@@H]1[C@@H]2CC[C@]2(C)C(=O)CC[C@@H]12.
T2 construct: His-tagged, pET28b(+), E. coli Tuner(DE3), Ni-NTA and desalting gel filtration; tag not reported cut; primers read start MEKLICAL and end AHLDGK before vector C-terminal tag
As to the kind of experiment: purified protein. The data set is classed as biochemical, Sphingobium sp. Chol11. The settings on record: 50 mM MOPS pH 7.8, 30 °C, 25% ethanol, dehydration, substrate range 50 µM to 1 mM.

As to `C[C@]12C=CC(=O)C=C1C[C@@H](O)[C@@H]1[C@@H]2CC[C@]2(C)C(=O)CC[C@@H]12` [XI, 7α-hydroxy-androsta-1,4-diene-3,17-dione], the Km with Hsh2 is 250 ± 50 µM.
As to Hsh3 (Nov2c681) (Sphingobium sp.), in data set [1], the Km worked out at 1260 ± 450 µM, the kcat is 130 ± 30.1 s⁻¹ and the kcat/Km came to 103000 M⁻¹ s⁻¹.

What is called Km is the concentration of substrate that gives half-maximal velocity. By kcat is commonly meant the maximal rate divided by the concentration of active sites. By kcat/Km is commonly meant the second-order rate constant that governs catalysis at low substrate concentration.
